Data reported in patent US20220073608A1.

Columns and labels:
[1] = target: T1, human SEMA4D, full length, on CHO-K1 cells (CHO-K1 hSEMA4D) (human) (UniProt Q92854); assay: competitive FACS, CHO-K1 hSEMA4D cells; unlabelled Ab 6 ug/mL first, competitor Alexa 488-2D5 0.67 ug/mL
T1 sequence (looked up): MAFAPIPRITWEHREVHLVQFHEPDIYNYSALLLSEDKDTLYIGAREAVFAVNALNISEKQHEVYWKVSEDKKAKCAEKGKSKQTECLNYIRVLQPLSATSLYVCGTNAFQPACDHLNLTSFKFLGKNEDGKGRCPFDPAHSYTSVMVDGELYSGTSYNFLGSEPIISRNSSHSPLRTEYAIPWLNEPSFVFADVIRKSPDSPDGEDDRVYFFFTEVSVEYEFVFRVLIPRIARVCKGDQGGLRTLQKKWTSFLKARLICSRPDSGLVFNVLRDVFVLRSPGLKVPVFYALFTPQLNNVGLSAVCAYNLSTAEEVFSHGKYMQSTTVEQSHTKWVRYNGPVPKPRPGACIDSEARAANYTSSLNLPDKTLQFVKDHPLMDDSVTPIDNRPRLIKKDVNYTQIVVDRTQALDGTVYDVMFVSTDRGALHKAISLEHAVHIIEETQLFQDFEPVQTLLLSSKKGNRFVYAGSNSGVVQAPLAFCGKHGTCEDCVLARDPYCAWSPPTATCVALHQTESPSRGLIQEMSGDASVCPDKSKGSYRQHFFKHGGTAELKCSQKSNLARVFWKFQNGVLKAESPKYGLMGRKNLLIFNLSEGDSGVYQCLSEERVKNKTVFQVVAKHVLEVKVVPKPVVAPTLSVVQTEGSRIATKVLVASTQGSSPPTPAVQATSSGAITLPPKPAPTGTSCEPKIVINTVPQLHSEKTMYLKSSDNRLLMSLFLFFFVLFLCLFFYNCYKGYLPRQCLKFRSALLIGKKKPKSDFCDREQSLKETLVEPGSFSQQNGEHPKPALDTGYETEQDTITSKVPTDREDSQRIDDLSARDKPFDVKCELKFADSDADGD

[2] = target: T1, human SEMA4D, full length, on CHO-K1 cells (CHO-K1 hSEMA4D) (human); assay: competitive FACS, CHO-K1 hSEMA4D cells; unlabelled Ab 6 ug/mL first, competitor Alexa 488-5D8 0.67 ug/mL
[3] = target: T1, human SEMA4D, full length, on CHO-K1 cells (CHO-K1 hSEMA4D) (human); assay: competitive FACS, CHO-K1 hSEMA4D cells; unlabelled Ab 6 ug/mL first, competitor Alexa 488-VX15 0.67 ug/mL
[4] = target: T2, biotinylated hSEMA4D ECD-His (human) (UniProt Q92854); assay: BLI (Octet-Red), scFv in bacterial periplasmic extract; off-rate ranking
T2 sequence (chain, biotinylated with Biotin-X-X-NHS at a molar ratio of 8,1; sites not stated): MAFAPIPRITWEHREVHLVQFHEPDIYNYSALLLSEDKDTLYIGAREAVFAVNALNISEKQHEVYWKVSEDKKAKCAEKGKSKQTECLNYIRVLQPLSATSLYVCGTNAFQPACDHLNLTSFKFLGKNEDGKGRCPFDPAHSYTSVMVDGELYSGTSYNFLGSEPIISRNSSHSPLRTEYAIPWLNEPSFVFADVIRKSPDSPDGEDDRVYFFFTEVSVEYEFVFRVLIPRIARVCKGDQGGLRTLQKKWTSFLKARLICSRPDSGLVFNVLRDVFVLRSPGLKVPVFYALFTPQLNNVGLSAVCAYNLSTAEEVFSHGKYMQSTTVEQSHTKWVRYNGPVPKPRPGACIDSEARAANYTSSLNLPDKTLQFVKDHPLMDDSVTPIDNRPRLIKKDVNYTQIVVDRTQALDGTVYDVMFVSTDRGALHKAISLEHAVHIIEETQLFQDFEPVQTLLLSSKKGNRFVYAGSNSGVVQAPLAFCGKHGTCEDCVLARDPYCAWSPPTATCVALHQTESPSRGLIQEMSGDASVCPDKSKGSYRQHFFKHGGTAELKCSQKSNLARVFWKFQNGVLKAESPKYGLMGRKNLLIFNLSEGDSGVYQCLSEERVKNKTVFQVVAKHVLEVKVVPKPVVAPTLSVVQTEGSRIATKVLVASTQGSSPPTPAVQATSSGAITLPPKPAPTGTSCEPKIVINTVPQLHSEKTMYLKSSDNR

Row | Binder | inhibition rate (%) [1] | inhibition rate (%) [2] | inhibition rate (%) [3] | fold reduction of off-rate against the wild type [4]
1 | VX15 (antibody, INN chains, looked up, V domains shown) VH: QVQLVQSGAEVKKPGSSVKVSCKASGYSFSDYYMHWVRQAPGQGLEWMGQINPTTGGASYNQKFKGKATITVDKSTSTAYMELSSLRSEDTAVYYCARYYYGRHFDVWGQGTTVTVSS VL: DIVMTQSPDSLAVSLGERATINCKASQSVDYDGDSYMNWYQQKPGQPPKLLIYAASNLESGVPDRFSGSGSGTDFTLTISSLQAEDVAVYYCQQSNEDPYTFGQGTKLEIK | 96% | 98% | 97% | 
2 | 2D5-b1-3D9 scFv (periplasmic extract) (scFv, part only; not given: linker, domain order, tags, V domains shown, not shown: another chain or arm of the molecule; large carriers; small tags and cut ends) VH: QVTLRESGPALVKPTQTLTLTCTFSGFSLTTTGVAVTWIRQPPGKALEWLALIDWDDDKYYSTSLKTRLTISKDTSKNQVVLTMTNMDPVDTATYYCARIASGDSGGYFADWGQGTLVTVSS VL: SYELTQPPSVSVSPGQTASITCSGDKLDDKYVYWYQQKPGQSPVLVIYMDNKRKSGIPERFSGSNSGNTATLTISGTQAMDEADYYCQAWESSSDQYVFGTGTKVTVL |  |  |  | 45 times
